Two molecules from paper PMC9892617, “Small-angle x-ray and neutron scattering of MexR and its complex with DNA supports a conformational selection binding model” (Biophysical Journal, 2022) can be followed below.

One data set deals with T1, MexR (Pseudomonas aeruginosa, UniProt P52003 5-139).
T1 sequence: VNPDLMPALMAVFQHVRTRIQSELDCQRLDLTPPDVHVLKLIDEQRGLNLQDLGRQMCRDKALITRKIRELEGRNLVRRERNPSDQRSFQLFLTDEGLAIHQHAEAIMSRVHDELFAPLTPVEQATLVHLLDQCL
In words: ITC; one MexR dimer per duplex; 20 C; ITC: 20 mM sodium phosphate pH 7.1, 150 mM NaCl, 5 mM beta-mercaptoethanol, 20 C; complex sample buffer: 20 mM sodium phosphate pH 7.1, 150 mM NaCl, 10 mM DTT. To be noted: protein: recombinant; tags: 6xHis-thioredoxin tag removed with TEV; chain copies: 2; blunt. On the technique in general: In ITC the heat of successive injections is recorded.

Data set [1] deals with the molecule itself. Briefly: SEC-MALS; Superdex 75 Increase 5/150, 20 mM HEPES pH 7.1, 150 mM NaCl, 10 mM DTT, 1% v/v glycerol, 0.3 mL/min, 20°C; MALLS with RI detection.

B1: PII DNA (dsDNA)
DNA 1: CTTATTTTAGTTGACCTTATCAACCTTGTTTCAG
DNA 2: CTGAAACAAGGTTGATAAGGTCAACTAAAATAAG
Regarding B1, the Kd with MexR came to 240 nM.

B2: MexR (Val5-Leu139) (domain or fragment)
chain: VNPDLMPALMAVFQHVRTRIQSELDCQRLDLTPPDVHVLKLIDEQRGLNLQDLGRQMCRDKALITRKIRELEGRNLVRRERNPSDQRSFQLFLTDEGLAIHQHAEAIMSRVHDELFAPLTPVEQATLVHLLDQCL
notes: MexR, transcriptional repressor of the MarR family, Pseudomonas aeruginosa, UniProt P52003, residues Val5-Leu139; Homodimer in solution; also called apo-MexR; hMexR; source: E. coli BL21 Rosetta 2(DE3), purified (Ni-NTA IMAC, TEV cleavage, reverse IMAC, Superdex 75)
Turning to B2, the “stoichiometry N” value in data set [1] was found to be 2.

Broadly, the Kd is the constant that tells how readily two partners part at equilibrium. The term stoichiometry N denotes the number of molecules, sites or subunits per partner or assembly.
